Data set [1] concerns MS2 coat protein. Put plainly: apparent KD of MS2 coat protein, switch ON state; designed switch direction (-1 OFF switch, 1 ON switch): -1; higher = weaker reporter binding. The following applies: FMN input: 0 or 200 uM; Eterna round: R93 (includes R88 designs). In short, it runs like this: (§1)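 Apparent KD was obtained for each design as the median of normalised binding-curve fits over its clusters. RNA switches transcribed on-chip from Illumina sequencing clusters were titrated with SNAP-549-labelled MS2 coat protein (twofold steps, 0.7 or 1.5 nM to 3 µM) in 100 mM Tris-HCl pH 7.5, 80 mM KCl, 4 mM MgCl2, without or with constant ligand.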

Data set [2] deals with MS2 coat protein. Put plainly: apparent KD of MS2 coat protein, switch OFF state (with FMN for OFF switches, without FMN for ON switches); designed switch direction (-1 OFF switch, 1 ON switch): -1; higher = weaker reporter binding. The following applies: FMN input: 0 or 200 uM; Eterna round: R93 (includes R88 designs). In short, it runs like this:
as §1

As to “GAAAGGGCAGGAUAUGCAGAGAGAGAGAGAGAGAGAAAAAAACAUGAGGAUCACCCAUGUAGAAGGGCCGAAAG [salish99-ex2-06]”, the “apparent KD of MS2 coat protein” value with MS2 coat protein [1] worked out at 38.5 nM; in the data set with MS2 coat protein [2], 52.4 nM.

Consider “GAAAUGUCAGGAUAUGCGAAGGCGUCUGAUAGACGAGGAUAGCAGAAGGGACAUGAGGAUCACCCAUGUAAAAA [Opal 13]”, for which the “apparent KD of MS2 coat protein” value in the data set on MS2 coat protein [1] stood at 117 nM; with MS2 coat protein [2] it was 220 nM.

On to “GAACGCCUAGGAUAUACAUGAGGAUCACCCAUGUCUCCCAGUCCUGGAGUGACCUCUAGUAGAAGGAGGAAUAA [Ertein]”, for which the “apparent KD of MS2 coat protein” value in the data set with MS2 coat protein [1] came to 342 nM; in the data set on MS2 coat protein [2], 115 nM.

Turning to “GAAGAACAUGAGGAUCACCCAUGUGAGGAUAUACAGAAGGGAAUAAAAUAACCAGAAAGUAGAAGGCACAAGAA [Ex 1 May 40]”, the “apparent KD of MS2 coat protein” value was 35.1 nM in the data set on MS2 coat protein [1] and 45.7 nM in the data set with MS2 coat protein [2].

For “GAGGAACAUGAGGAUCACCCAUGUGAGGAUAUCGGAGGAGGAGGAGGAGGAGGAGGAGCGAGAAGGUACAAGAG [salish99-Ex1-03]”, the “apparent KD of MS2 coat protein” value with MS2 coat protein [1] worked out at 22.7 nM; in the data set with MS2 coat protein [2], 29.8 nM.

In the case of “GAUAAACAUGAGGAUCACCCAUGUCAGGAUAUGCACUAACUAACUAACUAACUAGCUAGCAGAAGGGACACUAC [Amethyst 86]”, the “apparent KD of MS2 coat protein” value was determined as 24.9 nM with MS2 coat protein [1] and 33.4 nM with MS2 coat protein [2].

For the sequence “GAUAGGCGAGGAUAUACAUGAGGAUCACCCAUGUAAGUAAGCCUGGCUGAAACUGAAUGUAGAAGGCGCACAUU [Ex3Try2_Neo]”, the “apparent KD of MS2 coat protein” value in the data set with MS2 coat protein [1] amounted to 16.2 nM; in the data set on MS2 coat protein [2], 39.6 nM.

On to “GAUCCACAUGAGGAUCACCCAUGUAAGGAUAUUUAAAACCGGAGACAACCCUCCGAAGAAAGAAGGUACAAAAC [Ququraes]”, for which the “apparent KD of MS2 coat protein” value with MS2 coat protein [1] stood at 13 nM; in the data set on MS2 coat protein [2], 12.6 nM.

Consider “GGAAAACAUGAGGAUCACCCAUGUAAGGAUAUGCAAAAAAAGGAUAUAGAAGGAAAAAGCAGAAGGUACAAAGG [salish99-ex1-24]”, for which the results for the “apparent KD of MS2 coat protein” value in the data set on MS2 coat protein [1] and with MS2 coat protein [2] were 30.6 nM and 55.5 nM, respectively.

In the case of “GGAAAACAUGAGGAUCACCCAUGUCAGGAUAUACAAAGAAAGAAAGAAAAGAAAGAAAGUAGAAGGGACUAAAG [Amethyst 16]”, the figures for the “apparent KD of MS2 coat protein” value in the data set on MS2 coat protein [1] and with MS2 coat protein [2] were 20.4 nM and 37.9 nM, respectively.

In the case of “GGAAAACAUGAGGAUCACCCAUGUGAGGAUAUCGAUGUCCAAUAAAAAGUGCGGGACUCGAGAAGGCACUUGGA [salish99-ex1-41]”, the “apparent KD of MS2 coat protein” value in the data set with MS2 coat protein [1] is 36.2 nM; in the data set with MS2 coat protein [2], 29.2 nM.

In the case of “GGAAAGCGAGGAUAUACAUGAGGAUCACCCAUGUAAACAAACAAACAAACAAACAAAUGUAGAAGGCGCAAAAC [Exclusion 3 Strange]”, the entries for the “apparent KD of MS2 coat protein” value in the data set on MS2 coat protein [1] and with MS2 coat protein [2] were 49 nM and 50.6 nM, respectively.

In the case of “GGAGUGCAAGGAUAUACAUGAGGAUCACCCAUGUGAGAGAAAAAAGUGAGAAAGAAAAGUAGAAGGUGCGUUCG [salish99-ex3-131]”, the figures for the “apparent KD of MS2 coat protein” value in the data set with MS2 coat protein [1] and in the data set on MS2 coat protein [2] were 29.2 nM and 44.8 nM, respectively.

On to “GGGUACGCAGGAUAUACAUGAAAAAAAAAAAAAAAAAAAAAACAUGAGGAUCACCCAUGUAGAAGGGCGUAUCC [hsl_exclusion2]”, for which the “apparent KD of MS2 coat protein” value in the data set on MS2 coat protein [1] was determined as 92.5 nM; with MS2 coat protein [2] it was 314 nM.

As to “GGGUCACAUGAGGAUCACCCAUGUAAGGAUAUGCUAGGGAUGGAAGCCAGGCCAAAAAGCAGAAGGUACUAAAG [Janelle Amethyst 18 Mod 15 - Jieux - Exclusion 1]”, the entries for the “apparent KD of MS2 coat protein” value with MS2 coat protein [1] and with MS2 coat protein [2] were 41.2 nM and 85.8 nM, respectively.

Regarding “GGUUGAAUAGGAUAUACAUGAGGAUCACCCAUGUGAGAGAAAAAAGUGAGAAAGAAAAGUAGAAGGAUUUGACG [salish99-ex3-61]”, the figures for the “apparent KD of MS2 coat protein” value in the data set with MS2 coat protein [1] and in the data set with MS2 coat protein [2] were 34.7 nM and 65.1 nM, respectively.

With “GGUUGGCGAGGAUAUACAUGAGGAUCACCCAUGUGAGAGAAAAAAGUGAGAAAGAAUAGUAGAAGGCGCUGACG [salish99-ex3-40]”, the “apparent KD of MS2 coat protein” value with MS2 coat protein [1] was 42.5 nM; in the data set with MS2 coat protein [2], 255 nM.

Take “GGUUGGCGAGGAUAUACAUGAGGAUCACCCAUGUGAGAGAAAAAAGUGAGAAAGAUAAGUAGAAGGCGCUGACG [salish99-ex3-39]”: the figures for the “apparent KD of MS2 coat protein” value in the data set with MS2 coat protein [1] and in the data set with MS2 coat protein [2] were 80.3 nM and 169 nM, respectively.

For the sequence “GGUUGGCGAGGAUAUACAUGAGGAUCACCCAUGUGAGAGAAAAAAGUGAGAUAGAAAAGUAGAAGGCGCUGACG [salish99-ex3-34]”, the entries for the “apparent KD of MS2 coat protein” value in the data set with MS2 coat protein [1] and in the data set on MS2 coat protein [2] were 58.8 nM and 286 nM, respectively.

On to “GGUUGGCGAGGAUAUACAUGAGGAUCACCCAUGUGAGAGAAAAAAGUGAGGAAGAAAAGUAGAAGGCGCUGACG [salish99-ex3-14]”, for which the “apparent KD of MS2 coat protein” value with MS2 coat protein [1] was determined as 32 nM; in the data set on MS2 coat protein [2], 636 nM.

Values taken from the supplement of paper PMC9170038.
